Target: LexA408-DBD-iLight V464L-msfGFP (E. coli; Idiomarina sp.)
Assay: cell-based or functional assay

LexA408-DBD-iLight V464L-msfGFP
inhibition efficiency of the gene expression (mCherry reporter, E. coli, 660 nm): 1.6 fold
